Experimental data published in patent publication US10808017B2, “Ubiquitin variants and uses therof as 53BP1 inhibitors” (The Governing Council of the University of Toronto, priority 2016, dated 2020).

Columns and labels:
Format in all cases: binding
53BP1 = molecular target: T1, 53BP1 (Homo sapiens, UniProt Q12888); assay: Flag co-immunoprecipitation from 293T cells; details: Flag IP from transfected 293T cell extracts, immunoblot
T1 construct: endogenous in cells; host or cells: 293T
Description: FIG. 3. The i53 protein inhibits 53BP1. FIG. 3A-B, U2OS cells were transfected with vectors expressing i53, its 53BP1-binding deficient mutant (DM) or an empty vector (EV) control. Cells were then X-irradiated with a 10 Gy dose and processed for immunofluorescence with the indicated antibodies 1 h post-irradiation (IR). DAPI staining (not shown) was used to delineate the outline (dashed lines) of the cell nuclei. The region in the magnified inset is indicated with a square. Quantitation of the experiment is shown in panel (a) and data is indicated as the mean±s.e.m (N=3), whereas in (b) representative micrographs are shown. Arrowheads indicate Flag-positive cells. FIG. 3C, Parental or 53BP1ΔU2OS cells transfected with vectors expressing i53, the DM mutant or an empty vector (EV) control were irradiated (10 Gy) 1 h before being processed for immunofluorescence. Cell cycle stage was assessed by Cyclin A staining. The data is presented as the mean±s.e.m.; N=3. FIG. 3D, Immunoprecipitation (IP) of Flag-tagged proteins from extracts prepared from 293T cells transfected with vectors expressing Flag-i53 or the i53-DM mutant. Proteins were separated by SDS-PAGE and immunoblotted (IB) for Flag and 53BP1.
293T cells were transfected with 10 μg of pcDNA3-Flag-i53-derived plasmids using polyethylenimine (PEI). […]

HIST1H2BG = molecular target: T2, HIST1H2BG (Homo sapiens, UniProt P62807); assay: Flag IP-MS of i53/i53-DM baits: prey HIST1H2BG; details: 293T Flp-In/T-Rex extracts, LC-MS/MS, one column per replicate IP
T2 construct: endogenous in cells; host or cells: HEK293 Flp-In/T-REx
Description: (§1) Following immunoprecipitation of Flag-tagged i53 and i-53-DM from HEK293 Flp-In/T-REx cells, peptides were identified using LC-MS/MS. Proteins were digested in solution with trypsin (Sigma, T7575-1KT) and dried to completeness. For LC-MS/MS analysis, peptides were reconstituted in 5% formic acid and loaded onto a 12-15 cm fused silica column with pulled tip packed in-house with 3.5 μm Zorbax C18 (Agilent Technologies, Calif., USA).
(§2) i53 and i53-DM precipitates were analyzed using an LTQ (Thermo Scientific) coupled to an Agilent 1100 Series HPLC (Agilent Technologies). Peptides were eluted from the column using a 90 min period cycle with a linear gradient from 0% to 40% ACN in 0.1% formic acid. Tandem MS spectra were acquired in a data-dependent mode for the top 5 (LTQ) most abundant ions using collision-induced dissociation. Acquired spectra were searched against the human Refseq_V53 database using Mascot (Matrix Science).
(§3) 293T Flp-In/T-Rex cell lines were generated that expressed Flag-tagged i53 or i53-DM under the control of a tetracycline-inducible promoter as previously described. Nine IP-MS experiments were analyzed (3 biological replicate IPs each for control i53- and i53-DM expressing cell lines). The interacting proteins were identified by MASCOT to identify high-confidence interactors for i53. […]

FMR1 = molecular target: T3, FMR1 (Homo sapiens, UniProt Q06787); assay: Flag IP-MS of i53/i53-DM baits: prey FMR1; details: 293T Flp-In/T-Rex extracts, LC-MS/MS, one column per replicate IP
T3 construct: endogenous in cells; host or cells: HEK293 Flp-In/T-REx cells
Description: as §1, §2, §3

KRT6A = molecular target: T4, KRT6A (Homo sapiens, UniProt P02538); assay: Flag IP-MS of i53/i53-DM baits: prey KRT6A; details: 293T Flp-In/T-Rex extracts, LC-MS/MS, one column per replicate IP
T4 construct: Following immunoprecipitation of Flag-tagged i53 and i-53-DM from HEK293 Flp-In/T-REx cells, peptides were identified using LC-MS/MS; endogenous in cells; host or cells: HEK293 Flp-In/T-REx cells
T4 sequence (P02538 1-564): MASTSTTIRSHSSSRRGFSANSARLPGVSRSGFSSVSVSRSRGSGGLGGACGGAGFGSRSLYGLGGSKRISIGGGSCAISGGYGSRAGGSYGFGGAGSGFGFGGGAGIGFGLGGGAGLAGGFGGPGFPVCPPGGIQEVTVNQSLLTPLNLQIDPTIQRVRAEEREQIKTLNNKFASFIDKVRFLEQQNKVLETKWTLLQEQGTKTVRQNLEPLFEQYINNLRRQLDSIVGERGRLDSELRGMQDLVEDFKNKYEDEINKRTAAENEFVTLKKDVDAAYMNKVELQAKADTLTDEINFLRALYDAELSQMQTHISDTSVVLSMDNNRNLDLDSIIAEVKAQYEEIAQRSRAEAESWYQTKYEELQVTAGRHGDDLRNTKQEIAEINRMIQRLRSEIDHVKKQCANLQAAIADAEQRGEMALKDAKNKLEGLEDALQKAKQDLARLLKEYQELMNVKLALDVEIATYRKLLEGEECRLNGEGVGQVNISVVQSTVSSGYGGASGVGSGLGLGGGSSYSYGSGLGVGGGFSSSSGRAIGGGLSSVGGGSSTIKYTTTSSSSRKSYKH
Description: as §1, §2, §3

TTC12 = molecular target: T5, TTC12 (Homo sapiens, UniProt Q9H892); assay: Flag IP-MS of i53/i53-DM baits: prey TTC12; details: 293T Flp-In/T-Rex extracts, LC-MS/MS, one column per replicate IP
T5 construct: endogenous in cells; host or cells: HEK293 Flp-In/T-REx cells
T5 sequence (Q9H892 1-705): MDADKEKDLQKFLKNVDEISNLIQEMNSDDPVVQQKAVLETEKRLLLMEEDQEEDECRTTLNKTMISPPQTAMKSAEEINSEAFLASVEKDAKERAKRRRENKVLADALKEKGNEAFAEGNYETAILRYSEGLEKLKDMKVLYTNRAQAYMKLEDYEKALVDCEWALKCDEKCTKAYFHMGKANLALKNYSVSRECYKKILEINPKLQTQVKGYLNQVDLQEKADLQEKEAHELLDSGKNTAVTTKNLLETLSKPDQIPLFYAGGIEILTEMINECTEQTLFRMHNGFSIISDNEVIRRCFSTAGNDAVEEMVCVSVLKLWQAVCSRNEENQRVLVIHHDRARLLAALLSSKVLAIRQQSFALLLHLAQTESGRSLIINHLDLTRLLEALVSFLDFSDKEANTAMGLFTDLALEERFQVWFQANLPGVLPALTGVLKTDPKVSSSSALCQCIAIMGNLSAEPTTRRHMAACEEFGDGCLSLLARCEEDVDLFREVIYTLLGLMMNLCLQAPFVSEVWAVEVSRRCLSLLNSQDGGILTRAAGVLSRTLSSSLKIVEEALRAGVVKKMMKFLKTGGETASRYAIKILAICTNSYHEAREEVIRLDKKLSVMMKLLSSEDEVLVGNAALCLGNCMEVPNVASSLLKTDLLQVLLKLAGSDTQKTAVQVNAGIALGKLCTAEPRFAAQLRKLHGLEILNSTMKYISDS
Description: as §1, §2, §3

T1 sequence (Q12888 whole entry): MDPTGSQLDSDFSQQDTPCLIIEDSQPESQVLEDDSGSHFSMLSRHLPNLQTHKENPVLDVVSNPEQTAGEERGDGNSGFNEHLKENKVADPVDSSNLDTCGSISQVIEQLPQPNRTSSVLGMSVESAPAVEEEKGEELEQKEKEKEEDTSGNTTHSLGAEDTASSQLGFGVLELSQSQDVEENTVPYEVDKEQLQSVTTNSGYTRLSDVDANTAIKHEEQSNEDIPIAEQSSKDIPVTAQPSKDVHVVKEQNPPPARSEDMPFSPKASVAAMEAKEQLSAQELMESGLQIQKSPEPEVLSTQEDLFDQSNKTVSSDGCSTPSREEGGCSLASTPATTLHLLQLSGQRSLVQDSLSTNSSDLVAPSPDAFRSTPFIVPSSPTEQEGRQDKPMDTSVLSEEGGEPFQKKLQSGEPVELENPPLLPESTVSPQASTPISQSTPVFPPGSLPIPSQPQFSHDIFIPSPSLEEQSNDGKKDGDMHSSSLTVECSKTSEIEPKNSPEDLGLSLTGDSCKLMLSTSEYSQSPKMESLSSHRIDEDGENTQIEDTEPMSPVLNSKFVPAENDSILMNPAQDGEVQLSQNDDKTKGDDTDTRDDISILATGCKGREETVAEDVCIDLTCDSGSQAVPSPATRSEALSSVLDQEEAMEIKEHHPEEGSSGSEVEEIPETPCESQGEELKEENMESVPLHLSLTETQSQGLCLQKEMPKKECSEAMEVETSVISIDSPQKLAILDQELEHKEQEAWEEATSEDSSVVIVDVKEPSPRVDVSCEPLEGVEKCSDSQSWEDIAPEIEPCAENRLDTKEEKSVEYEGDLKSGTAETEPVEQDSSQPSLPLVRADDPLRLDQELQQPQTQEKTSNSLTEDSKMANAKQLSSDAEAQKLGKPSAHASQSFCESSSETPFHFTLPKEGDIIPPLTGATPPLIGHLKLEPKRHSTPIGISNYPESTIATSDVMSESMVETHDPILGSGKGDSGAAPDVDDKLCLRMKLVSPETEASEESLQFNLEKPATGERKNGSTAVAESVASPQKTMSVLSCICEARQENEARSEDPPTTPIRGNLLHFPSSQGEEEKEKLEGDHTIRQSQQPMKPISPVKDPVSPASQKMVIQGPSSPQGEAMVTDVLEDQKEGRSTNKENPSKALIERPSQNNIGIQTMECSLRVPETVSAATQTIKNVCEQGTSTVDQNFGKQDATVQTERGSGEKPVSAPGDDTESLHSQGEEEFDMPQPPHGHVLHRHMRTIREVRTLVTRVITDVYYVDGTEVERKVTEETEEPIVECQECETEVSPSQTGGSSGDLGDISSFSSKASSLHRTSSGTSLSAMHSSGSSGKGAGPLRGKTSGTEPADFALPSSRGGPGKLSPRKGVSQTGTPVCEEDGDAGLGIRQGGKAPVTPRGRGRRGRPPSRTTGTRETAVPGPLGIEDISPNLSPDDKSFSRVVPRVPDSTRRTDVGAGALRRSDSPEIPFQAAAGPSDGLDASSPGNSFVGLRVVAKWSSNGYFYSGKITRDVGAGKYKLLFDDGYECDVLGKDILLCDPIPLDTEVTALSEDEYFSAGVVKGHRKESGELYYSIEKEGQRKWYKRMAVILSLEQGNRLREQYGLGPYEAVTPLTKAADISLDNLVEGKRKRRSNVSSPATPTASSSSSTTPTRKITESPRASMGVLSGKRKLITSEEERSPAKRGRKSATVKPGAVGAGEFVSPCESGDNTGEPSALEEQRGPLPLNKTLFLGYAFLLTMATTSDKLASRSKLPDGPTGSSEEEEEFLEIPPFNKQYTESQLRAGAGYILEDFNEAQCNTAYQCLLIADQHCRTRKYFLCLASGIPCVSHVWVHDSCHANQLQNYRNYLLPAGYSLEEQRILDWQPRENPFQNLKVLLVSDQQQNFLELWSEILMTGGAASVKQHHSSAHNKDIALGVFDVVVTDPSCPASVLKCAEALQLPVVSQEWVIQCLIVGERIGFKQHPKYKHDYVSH

Row | Retrieval of 53BP1 in co-immunoprecipitation (53BP1) | Total peptides, HIST1H2BG (HIST1H2BG) | Total peptides, FMR1 (FMR1) | Total peptides, KRT6A (KRT6A) | Total peptides, TTC12 (TTC12) | Substance
1 | efficiently retrieved 53BP1 | 4 | – | – | – | i53: UbvG08 with C-terminal di-glycine removed and I44A mutation; genetically encoded inhibitor of 53BP1
2 | – | – | 6 | 3 | 3 | i53-DM: 53BP1-binding deficient mutant of i53 (P69L, L70V)
